This is an account of results in patent US20250011363A1, “OPTIMIZED SHORTENED PEPTIDE THAT BINDS TO ACETYLCHOLINE RECEPTOR, AND USE THEREOF” (SKINMED CO., LTD., priority 2021, published 2025).

Experiment [1] concerns the target acetylcholine receptor. As to the kind of experiment: SPR, receptor on CM5 chip, peptide 10 µM. For orientation: Surface plasmon resonance follows binding to a sensor surface in real time, without labels.
The target of experiment [2] is acetylcholine receptor. The experiment in a line: SPR, AchR immobilised on chip, peptide at 10 uM.

Molecule RRQYQK [6mer-1-75] showed a Binding affinity (RU) in the experiment with acetylcholine receptor [1] of 139 RU. The molecule RKRICK [6mer-1-103] displayed a Binding affinity (RU) in the experiment with acetylcholine receptor [1] of 122 RU. Still for that read-out and setting: under KRWIRR [6mer-1-93] stands 136 RU. KWISK [5mer-296]: the Binding affinity (RU) with acetylcholine receptor [2] came out at 55 RU. The molecule KRGVRK [6mer-1-96] had a Binding affinity (RU) with acetylcholine receptor [1] of 125 RU. In turn, RKVICR [6mer-1-111] displayed a Binding affinity (RU) in the experiment with acetylcholine receptor [1] of 144 RU. In the experiment with acetylcholine receptor [2], RSVSK [5mer-585] gave a Binding affinity (RU) of 74 RU. As to RWFQK [5mer-286], the Binding affinity (RU) with acetylcholine receptor [2] is 71 RU. As for KKLLYR [6mer-1-70], in the experiment with acetylcholine receptor [1], the Binding affinity (RU) amounted to 139 RU. In the experiment with acetylcholine receptor [2], KGRRR [5mer-586] showed a Binding affinity (RU) of 78 RU. For KKQQQR [6mer-1-73], the Binding affinity (RU) with acetylcholine receptor [1] came to 142 RU. In the experiment with acetylcholine receptor [2], RGRCR [5mer-295] displayed a Binding affinity (RU) of 52 RU.

As for KKQLRR [6mer-1-77], the Binding affinity (RU) with acetylcholine receptor [1] was 149 RU.

Turning to KKWQTK [6mer-1-95], the Binding affinity (RU) in the experiment with acetylcholine receptor [1] amounted to 142 RU.

In the experiment with acetylcholine receptor [2], RSFTR [5mer-588] displayed a Binding affinity (RU) of 60 RU. As for KKRVSK [6mer-1-78], the Binding affinity (RU) with acetylcholine receptor [1] came to 145 RU. On to KKWRQK [6mer-1-86], for which the Binding affinity (RU) with acetylcholine receptor [1] was 142 RU. RKVRRR [6mer-1-69] gave a Binding affinity (RU) in the experiment with acetylcholine receptor [1] of 142 RU. The molecule KSIYR [5mer-298] displayed a Binding affinity (RU) with acetylcholine receptor [2] of 75 RU. In the experiment with acetylcholine receptor [2], KQYLK [5mer-593] had a Binding affinity (RU) of 77 RU.

In turn, RVITR [5mer-587] returned a Binding affinity (RU) with acetylcholine receptor [2] of 66 RU. As for RWFTR [5mer-291], in the experiment with acetylcholine receptor [2], the Binding affinity (RU) is 72 RU. Regarding KRWFYK [6mer-1-71], in the experiment with acetylcholine receptor [1], the Binding affinity (RU) worked out at 121 RU. For the molecule RKQRCK [6mer-1-89], the Binding affinity (RU) with acetylcholine receptor [1] amounted to 142 RU. For the molecule RWLCR [5mer-592], the Binding affinity (RU) in the experiment with acetylcholine receptor [2] was 56 RU.

In the experiment with acetylcholine receptor [1], KKVLYR [6mer-1-82] yielded a Binding affinity (RU) of 123 RU. Molecule KRLFCK [6mer-1-79] displayed a Binding affinity (RU) with acetylcholine receptor [1] of 137 RU. In the case of KGQLK [5mer-285], the Binding affinity (RU) with acetylcholine receptor [2] worked out at 75 RU. Regarding KRGQLK [6mer-1-106], the Binding affinity (RU) with acetylcholine receptor [1] worked out at 149 RU. In the case of RQYYR [5mer-293], the Binding affinity (RU) in the experiment with acetylcholine receptor [2] is 83 RU. Molecule RRLLLR [6mer-1-108] had a Binding affinity (RU) with acetylcholine receptor [1] of 139 RU. KRVQQR [6mer-1-80] came in with a Binding affinity (RU) with acetylcholine receptor [1] of 133 RU. In the experiment with acetylcholine receptor [2], KQYYK [5mer-294] showed a Binding affinity (RU) of 50 RU.

In the experiment with acetylcholine receptor [2], KQYTK [5mer-590] came in with a Binding affinity (RU) of 81 RU.

In the experiment with acetylcholine receptor [1], KRQLLK [6mer-1-110] had a Binding affinity (RU) of 121 RU. Same read-out and setting: under KKGISK [6mer-1-90] stands 125 RU; under RRWQLR [6mer-1-81], 148 RU; under RKVVYR [6mer-1-99], 136 RU. In the experiment with acetylcholine receptor [2], RVRSK [5mer-598] gave a Binding affinity (RU) of 84 RU. KQYSR [5mer-594]: in the experiment with acetylcholine receptor [2], the Binding affinity (RU) was 50 RU.

As to KWQQR [5mer-595], the Binding affinity (RU) with acetylcholine receptor [2] was found to be 58 RU. KKVRLR [6mer-1-74] registered a Binding affinity (RU) with acetylcholine receptor [1] of 142 RU. As for RGYYR [5mer-290], in the experiment with acetylcholine receptor [2], the Binding affinity (RU) is 57 RU.

As for KLVCK [5mer-292], the Binding affinity (RU) with acetylcholine receptor [2] was determined as 59 RU. KRWLYR [6mer-1-101] returned a Binding affinity (RU) with acetylcholine receptor [1] of 142 RU. In the experiment with acetylcholine receptor [1], RKQQCK [6mer-1-91] displayed a Binding affinity (RU) of 131 RU.

Regarding RRQYR [5mer-289], the Binding affinity (RU) with acetylcholine receptor [2] amounted to 87 RU.

RRGQTK [6mer-1-84] had a Binding affinity (RU) in the experiment with acetylcholine receptor [1] of 142 RU. RKVQLK [6mer-1-72] came in with a Binding affinity (RU) with acetylcholine receptor [1] of 139 RU.

RVYTK [5mer-591] returned a Binding affinity (RU) in the experiment with acetylcholine receptor [2] of 61 RU. For KRYRR [5mer-287], the Binding affinity (RU) with acetylcholine receptor [2] amounted to 68 RU. RKWISK [6mer-1-100] came in with a Binding affinity (RU) with acetylcholine receptor [1] of 146 RU.

Take KKQRSR [6mer-1-107]: the Binding affinity (RU) with acetylcholine receptor [1] was 131 RU. Take RRWRLK [6mer-1-92]: the Binding affinity (RU) in the experiment with acetylcholine receptor [1] is 153 RU. KRWICK [6mer-1-88] showed a Binding affinity (RU) in the experiment with acetylcholine receptor [1] of 121 RU. RSLRK [5mer-297] had a Binding affinity (RU) in the experiment with acetylcholine receptor [2] of 81 RU.

As to KKRYLR [6mer-1-109], the Binding affinity (RU) in the experiment with acetylcholine receptor [1] is 148 RU.

In turn, KGLCR [5mer-589] came in with a Binding affinity (RU) in the experiment with acetylcholine receptor [2] of 58 RU. Turning to KLILK [5mer-288], the Binding affinity (RU) with acetylcholine receptor [2] was 73 RU. KRLQCR [6mer-1-98] displayed a Binding affinity (RU) in the experiment with acetylcholine receptor [1] of 154 RU. On to KRGFSK [6mer-1-104], for which the Binding affinity (RU) with acetylcholine receptor [1] was determined as 121 RU. Regarding KKSISK [6mer-1-105], in the experiment with acetylcholine receptor [1], the Binding affinity (RU) turned out to be 141 RU. KLVSR [5mer-597]: in the experiment with acetylcholine receptor [2], the Binding affinity (RU) turned out to be 68 RU. RRRYRR [6mer-1-102]: the Binding affinity (RU) with acetylcholine receptor [1] turned out to be 127 RU.

RKRQCK [6mer-1-85] gave a Binding affinity (RU) with acetylcholine receptor [1] of 121 RU. In the experiment with acetylcholine receptor [1], KKVYLR [6mer-1-97] gave a Binding affinity (RU) of 139 RU. For RRLQLK [6mer-1-76], the Binding affinity (RU) with acetylcholine receptor [1] amounted to 126 RU. RRSFLR [6mer-1-83] gave a Binding affinity (RU) in the experiment with acetylcholine receptor [1] of 146 RU. Turning to KKQVYK [6mer-1-87], the Binding affinity (RU) with acetylcholine receptor [1] was 139 RU. The molecule RKVQQK [6mer-1-94] registered a Binding affinity (RU) with acetylcholine receptor [1] of 142 RU. Turning to KLQQR [5mer-596], the Binding affinity (RU) in the experiment with acetylcholine receptor [2] worked out at 56 RU.
